Among the data in the supplement of paper PMC10126150 are switch fluorescence ratio values, retold here.

± gives the standard deviation of the averaged measurements.

This data set has as its system ATP. Nature of the data set: switch fluorescence ratio, 500 uM ATP over buffer (Cy3 cluster intensity, sum of 5 cycles each) (fold (ratio)); higher = stronger signal-on switching upon ATP binding; sequences stand for … in TCGTCGGCAGCGTCAGATGTGTATAAGAGACAGTTTTTTTTTTTTTTTTTTTTTTTTT…TC. The note with it: aptamer strand: ATP DNA aptamer (quencher-CACCTGGGGGAGTATTGCGGAGGAAGG + anchor), 100 nM annealed; ATP concentration: 500 uM. In outline:
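Between each of five buffer/ATP cycles, the flow-cell was stripped with NaOH and re-annealed. Each cycle imaged Cy3-labelled switching-strand clusters, annealed to 100 nM quencher-labelled ATP aptamer on a modified Illumina MiSeq flow-cell, first in selection buffer and then after 15 min with 500 uM ATP at 22 °C. The fluorescence ratio is summed target-cycle over summed buffer-cycle Cy3 intensity per cluster, averaged per switch-domain sequence, with clusters outside 100-1000 RFU excluded.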
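Also: ATP exposure 15 min at 22 °C before imaging.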

AAAAAAACA: the switch fluorescence ratio turned out to be 1.2 ± 0.11. For the sequence AAAAAAATAG, the switch fluorescence ratio was 1.03 ± 0.014. In the case of AAAAAACTAT it was 1.02 ± 0.018; in that of AAAAAACTTT, 1.05 ± 0.027.

Take AAAAAAGCAG: the switch fluorescence ratio was determined as 1.024 ± 0.0014. For the sequence AAAAAAGGAT, the switch fluorescence ratio was 1.024 ± 0.0086. Take AAAAAAGTTT: the switch fluorescence ratio came to 1.02 ± 0.033. For the sequence AAAAAATCGC, the switch fluorescence ratio stood at 1.09 ± 0.16.

Turning to AAAAAATTGT, the switch fluorescence ratio was determined as 0.999 ± 0.019. In the case of AAAAACAACT it was 1.024 ± 0.0076; in that of AAAAACACTT, 1.04 ± 0.022; in that of AAAAACAGGG, 1.16 ± 0.097. In the case of AAAAACCTCG, the switch fluorescence ratio turned out to be 1.05 ± 0.013. As to AAAAACGCTT, the switch fluorescence ratio is 1.01 ± 0.045.

For AAAAACGGTG, the switch fluorescence ratio was found to be 1.05 ± 0.084. For the sequence AAAAACGTCT, the switch fluorescence ratio was found to be 1.1 ± 0.016. In the case of AAAAAGAATG it was 0.973 ± 0.03; in that of AAAAAGATGA, 0.9626 ± 0.0028; in that of AAAAAGGGCG, 0.989 ± 0.02. AAAAAGGGTA: the switch fluorescence ratio came to 0.988 ± 0.05. For AAAAAGGGTG, the switch fluorescence ratio amounted to 1 ± 0.045. Regarding AAAAAGGTTC, the switch fluorescence ratio was determined as 0.991 ± 0.017. With AAAAAGTCTC, the switch fluorescence ratio is 0.9891 ± 0.0092. In the case of AAAAAGTGGG it was 0.992 ± 0.039; in that of AAAAAGTTTT, 0.985 ± 0.058; in that of AAAAATAATT, 0.983 ± 0.028. Consider AAAAATCACT, for which the switch fluorescence ratio is 1.04 ± 0.039.

On to AAAAATCTCT, for which the switch fluorescence ratio was found to be 1.02 ± 0.033.

On to AAAAATCTGC, for which the switch fluorescence ratio worked out at 1.03 ± 0.12.

On to AAAAATGGCT, for which the switch fluorescence ratio amounted to 1.04 ± 0.091. With AAAAATGTCA, the switch fluorescence ratio is 0.979 ± 0.045.

As for AAAAATTAAA, the switch fluorescence ratio was determined as 1.002 ± 0.0018. Regarding AAAAATTAAG, the switch fluorescence ratio is 1.03 ± 0.029.

For AAAACATCGC, the switch fluorescence ratio was determined as 1.015 ± 0.0029. In the case of AAAACATTCG it was 1.16 ± 0.12; in that of AAAACATTTT, 1.03 ± 0.049; in that of AAAACCAGCG, 1.03 ± 0.047. In the case of AAAACCGGAT, the switch fluorescence ratio worked out at 1.11 ± 0.18. In the case of AAAACGAATT it was 1.01 ± 0.044; in that of AAAACGAGTG, 1.02 ± 0.023; in that of AAAACGCAGG, 1.02 ± 0.053. On to AAAACTTGAA, for which the switch fluorescence ratio worked out at 1.07 ± 0.086. Take AAAAGACCCG: the switch fluorescence ratio was 1.07 ± 0.044. For the sequence AAAAGAGCGC, the switch fluorescence ratio came out at 1.08 ± 0.072.

AAAAGCGATC: the switch fluorescence ratio was found to be 1.14 ± 0.038. As to AAAAGCGTGG, the switch fluorescence ratio was found to be 1 ± 0.019. As for AAAAGGAGAC, the switch fluorescence ratio turned out to be 1.01 ± 0.028. Regarding AAAAGGATAG, the switch fluorescence ratio amounted to 0.954 ± 0.017. AAAAGGATGG: the switch fluorescence ratio was 0.979 ± 0.021. In the case of AAAAGGCATA it was 1.03 ± 0.046; in that of AAAAGGCCGG, 1.05 ± 0.14.

For AAAAGGCGTG, the switch fluorescence ratio was determined as 1.01 ± 0.021.

On to AAAAGGGAGT, for which the switch fluorescence ratio amounted to 0.972 ± 0.013. As to AAAAGGGGCG, the switch fluorescence ratio is 1 ± 0.019. In the case of AAAAGGGTAG it was 1.01 ± 0.018; in that of AAAAGGTCGT, 0.999 ± 0.019; in that of AAAAGGTGAA, 1.04 ± 0.089.

Consider AAAAGGTGG, for which the switch fluorescence ratio amounted to 0.983 ± 0.011. In the case of AAAAGGTGTA it was 0.99 ± 0.0095; in that of AAAAGGTTTT, 1 ± 0.033.

Regarding AAAAGTATGG, the switch fluorescence ratio worked out at 1 ± 0.015. AAAAGTGGGT: the switch fluorescence ratio turned out to be 0.9942 ± 0.0081. As for AAAAGTGTAT, the switch fluorescence ratio is 0.98 ± 0.03.

Consider AAAAGTTTGC, for which the switch fluorescence ratio was 1.02 ± 0.056. For the sequence AAAAGTTTTT, the switch fluorescence ratio worked out at 0.997 ± 0.025. Turning to AAAATAATCT, the switch fluorescence ratio was 0.9793 ± 0.004. For AAAATATGG, the switch fluorescence ratio is 0.997 ± 0.031. With AAAATATGTT, the switch fluorescence ratio came out at 1 ± 0.023. In the case of AAAATCAGAG, the switch fluorescence ratio amounted to 0.97 ± 0.024. AAAATCGTCT: the switch fluorescence ratio amounted to 1.08 ± 0.086. As for AAAATGATAG, the switch fluorescence ratio came to 1.06 ± 0.072. In the case of AAAATGGCTT, the switch fluorescence ratio was 0.988 ± 0.034.

As for AAAATGGGCT, the switch fluorescence ratio is 0.996 ± 0.038.

Regarding AAAATGGTTG, the switch fluorescence ratio is 1.04 ± 0.032. As to AAAATGTGAC, the switch fluorescence ratio is 1.039 ± 0.007. As for AAAATGTTTC, the switch fluorescence ratio is 1.02 ± 0.02. AAAATTGCAG: the switch fluorescence ratio worked out at 0.997 ± 0.012.

Take AAAATTGTTG: the switch fluorescence ratio is 0.988 ± 0.049. For AAAATTTAAA, the switch fluorescence ratio was determined as 1 ± 0.051. In the case of AAAATTTCGC, the switch fluorescence ratio amounted to 1.01 ± 0.018.

Take AAAATTTGGG: the switch fluorescence ratio worked out at 1.02 ± 0.025. Turning to AAACACGTTG, the switch fluorescence ratio turned out to be 1.018 ± 0.0094. Turning to AAACCAGGTA, the switch fluorescence ratio came out at 1.18 ± 0.048. For the sequence AAACCCAAAG, the switch fluorescence ratio was 1.02 ± 0.045. In the case of AAACCGGGCA, the switch fluorescence ratio was 1.22 ± 0.22.

As for AAACGAGGTC, the switch fluorescence ratio is 1.01 ± 0.032. With AAACGATTTA, the switch fluorescence ratio is 1.018 ± 0.0055.

Consider AAACGCAGGG, for which the switch fluorescence ratio is 1.03 ± 0.029. Consider AAACGCGGAC, for which the switch fluorescence ratio came out at 3.45 ± 0.49. In the case of AAACGCTGCT, the switch fluorescence ratio is 1.02 ± 0.062.

For the sequence AAACGGACGG, the switch fluorescence ratio stood at 1.24 ± 0.029. With AAACGGCTAA, the switch fluorescence ratio worked out at 1.02 ± 0.039. Consider AAACGGGGCG, for which the switch fluorescence ratio was determined as 0.9719 ± 0.0047.

AAACGGGTAG: the switch fluorescence ratio is 1.07 ± 0.1. For the sequence AAACGTGGTG, the switch fluorescence ratio came to 1 ± 0.038. Consider AAACTATAGA, for which the switch fluorescence ratio is 1.01 ± 0.054.

AAACTATGTG: the switch fluorescence ratio was found to be 1.02 ± 0.037. Regarding AAACTCATGA, the switch fluorescence ratio is 0.983 ± 0.02. With AAACTGACGG, the switch fluorescence ratio came out at 1.37 ± 0.016.

Turning to AAACTTAATG, the switch fluorescence ratio turned out to be 1.05 ± 0.061. For the sequence AAACTTTCTA, the switch fluorescence ratio amounted to 1.05 ± 0.05. Take AAACTTTTTT: the switch fluorescence ratio came out at 0.9566 ± 0.0049. AAAGAAAAAT: the switch fluorescence ratio was 1.002 ± 0.005. Take AAAGAAATTA: the switch fluorescence ratio amounted to 0.997 ± 0.042. In the case of AAAGAACCG, the switch fluorescence ratio is 1.085 ± 0.0014.

Regarding AAAGAACGCT, the switch fluorescence ratio came to 1.04 ± 0.015.

For AAAGAAGCTT, the switch fluorescence ratio turned out to be 1.02 ± 0.041. AAAGAAGGGG: the switch fluorescence ratio was found to be 0.995 ± 0.015. For AAAGAATTTT, the switch fluorescence ratio was found to be 1 ± 0.05. Turning to AAAGACACTC, the switch fluorescence ratio came out at 1.04 ± 0.071. As to AAAGACAGTG, the switch fluorescence ratio turned out to be 1.01 ± 0.058.

Consider AAAGACCCTG, for which the switch fluorescence ratio is 0.988 ± 0.049.

On to AAAGAGCGGG, for which the switch fluorescence ratio was found to be 1.02 ± 0.061.

For the sequence AAAGAGGCAA, the switch fluorescence ratio was found to be 1.03 ± 0.047. In the case of AAAGAGTGTT, the switch fluorescence ratio turned out to be 0.9776 ± 0.0081. On to AAAGAGTTCA, for which the switch fluorescence ratio came out at 1 ± 0.035. In the case of AAAGATAGGG, the switch fluorescence ratio was found to be 1.01 ± 0.018.

Take AAAGATCGTG: the switch fluorescence ratio came out at 0.974 ± 0.01. In the case of AAAGATTGTT it was 0.954 ± 0.011; in that of AAAGCATAGG, 1.03 ± 0.015.
